The values that follow come from US20100021473A1 (DOMANTIS, published 2010).

One may read the EC50 as the concentration at which the effect is half-maximal. Low readings indicate a more potent agent, high ones a less potent agent. The Kd is the constant that tells how readily two partners part at equilibrium. A higher Kd goes with lower affinity.

Positions count from the first letter of the chain named.

Experiment [1] deals with T1, CD138 on cells (UniProt P18827 23-310).
T1 construct: whole, on cells; Endogenous CD138 on cell lines used in FACS; also called DOM12; syndecan-1
T1 sequence (looked up): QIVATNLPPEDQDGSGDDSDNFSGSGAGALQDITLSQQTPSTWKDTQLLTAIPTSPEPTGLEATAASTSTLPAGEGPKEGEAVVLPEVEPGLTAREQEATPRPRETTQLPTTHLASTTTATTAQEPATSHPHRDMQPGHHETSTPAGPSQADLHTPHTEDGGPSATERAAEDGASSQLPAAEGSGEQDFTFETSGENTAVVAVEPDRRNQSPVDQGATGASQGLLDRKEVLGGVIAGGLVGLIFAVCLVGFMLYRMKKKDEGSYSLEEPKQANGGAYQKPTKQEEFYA
Kind of experiment: FACS dot plot (FSC-H against FL1-H) on H647 cells (CD38-/CD138+), ligand at 50 nM.

Experiment [2] has as its target T2, CD38 and CD138 co-expressed on cells (CD38+/CD138+ double positive cells) (UniProt P28907 1-300; P18827 23-310).
T2 construct: whole, on cells; Two separate membrane proteins on the same cell, not a complex; also called RPMI8226; OPM2
Kind of experiment: FACS cell binding titration on OPM2 cells (CD38+/CD138+), arithmetic mean fluorescence. The table prints no unit; the unit is taken from the x axis 'log conc in nm' (nanomolar). The protocol:
(§1) The determination of cell binding by FACS was carried out as follows: cells were centrifuged at 250 g for 5 minutes and the growth medium was removed. The cells were resuspended in FACS incubation buffer at 4° C. at a density of 2×10⁶ cells/ml. The cells were blocked by incubating for 15 minutes at 4° C. in FACS incubation buffer. Fifty microliters of 2× stock of primary antibody (anti-CD38 FITC, anti-CD138 FITC or mIgG1 FITC conjugated isotype control (all BD Biosciences) was added; or dAb was added to cells in FACS incubation buffer and incubated for 30-60 minutes at 4° C. The cells were then washed once in FACS incubation buffer. One hundred microliters of secondary antibody (rabbit anti-Vk) was added to cells in FACS incubation buffer and incubated 30-60 minutes at 4° C. The cells were washed once in FACS incubation buffer. Then 100 ul of 1× tertiary antibody was added to the cells in FACS incubation buffer and incubated for 30-60 mins at 4° C. (for dAbs the tertiary antibody is anti-rabbit FITC (Sigma)). The cells were washed twice in FACS incubation buffer. The cell pellet was resuspend in 200 ul FACS incubation buffer+viable cell marker (BD Viaprobe). The cells were then analyzed by flow cytometry.
Anti-CD38 and anti-CD138 affinity matured dAbs were paired to create dual specific ligands by cloning an anti-CD38 dAb and an anti-CD138 dAb into a dual expression vector. To determine if the increased affinity of the monomers was reflected in increased binding affinity of the dual specific ligand, a range of the affinity matured anti-CD38 dAbs were paired with the anti-CD138 dAb DOM12-45, a range of affinity matured anti-CD138 dAbs were paired with anti-CD38 dAbs, and a range of affinity matured anti-CD38 dAbs and affinity matured anti-CD138 dAbs were paired. All dual specific ligands were expressed in E. coli and purified using protein L agarose followed by Resource S cation exchange chromatography when required. The binding affinity of the dual specific ligands was assessed by FACS as described previously. In this study, a range of concentrations was used to allow determination of EC50.

The target in experiment [3] is T3, CD38 immobilised on Biacore CM5 chip (UniProt P28907 43-300, limits assumed).
T3 construct: also called DOM11
Kind of experiment: Biacore, CD38 immobilised. The procedure:
(§2) Anti-CD38, anti-CEA and anti-CD56 dAbs that were identified as FACS positive clones were in addition analysed by Biacore using the following procedure. The CM5 chip surface was activated by flushing 1:1 EDC/NHS (0.4M1-ethyl-3-(3-dimenthylaminopropyl)-carbodiimide in water; 0.1 M N-hydroxysuccinimide in water) at a flow rate of 5 uL/min for 10 minute contact time. CD38 was immobilised at 500 nM in Acetate buffer pH4 at 5 uL/min this was repeated until the RUs reached between 500 and 1000 (low density). CEA and CD56 were coupled in acetate buffer pH 4.5. Any excess reactive groups were deactivated by running 1M ethanolamine-HCl over the CM5 chip (again 5 uL/min for 7 mins). The affinities of the anti-CD38, anti-CEA and anti-CD56 dAbs were measured on the biacore as described above.
Affinity maturation libraries were created for the anti-CD38 dAbs DOM11-3 and DOM11-30 by error prone PCR. […] Initial screening was carried out by BIAcore (as described previously) and subsequently by FACS.

The target of experiment [4] is T3, CD38 immobilised on Biacore CM5 chip. Kind of experiment: SPR (Biacore), CD38 immobilised on CM5 chip. The procedure:
as §2
On the technique in general: In SPR one partner is held on a chip, and binding of the other changes the refractive index at the surface.

In experiment [5] the target is T1, CD138 on cells. Kind of experiment: FACS on RPMI cells (CD38+/138+). The procedure:
(§3) All dAbs were analysed by FACS on antigen positive and negative cell lines using the following method.
as §1

Experiment [6] concerns the target T4, CEA immobilised on Biacore CM5 chip (UniProt P06731 35-685, limits assumed).
T4 construct: also called DOM13
T4 sequence (looked up): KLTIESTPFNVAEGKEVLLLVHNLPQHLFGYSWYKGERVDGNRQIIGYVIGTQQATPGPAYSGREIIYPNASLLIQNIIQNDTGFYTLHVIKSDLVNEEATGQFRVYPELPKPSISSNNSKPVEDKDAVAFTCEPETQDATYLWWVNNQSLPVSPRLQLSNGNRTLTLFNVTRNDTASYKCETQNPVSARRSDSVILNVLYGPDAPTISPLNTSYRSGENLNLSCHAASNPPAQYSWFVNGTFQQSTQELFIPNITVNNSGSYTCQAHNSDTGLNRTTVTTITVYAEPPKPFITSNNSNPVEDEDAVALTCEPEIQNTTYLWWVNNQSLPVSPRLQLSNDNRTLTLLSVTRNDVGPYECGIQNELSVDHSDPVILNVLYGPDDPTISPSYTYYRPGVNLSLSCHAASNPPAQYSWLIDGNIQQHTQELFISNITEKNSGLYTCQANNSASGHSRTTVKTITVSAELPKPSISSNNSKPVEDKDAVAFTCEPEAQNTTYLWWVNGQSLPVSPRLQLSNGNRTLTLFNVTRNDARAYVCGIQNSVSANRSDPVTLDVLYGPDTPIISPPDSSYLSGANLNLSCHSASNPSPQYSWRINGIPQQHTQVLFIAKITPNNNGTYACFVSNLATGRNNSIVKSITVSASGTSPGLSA
Kind of experiment: Biacore, CEA immobilised. The procedure: as §2

For the next experiment, the target named is T5, NCA on H647 cells (UniProt P40199 35-320, limits assumed).
T5 construct: whole, on cells; Its identity is an inference
T5 sequence (looked up): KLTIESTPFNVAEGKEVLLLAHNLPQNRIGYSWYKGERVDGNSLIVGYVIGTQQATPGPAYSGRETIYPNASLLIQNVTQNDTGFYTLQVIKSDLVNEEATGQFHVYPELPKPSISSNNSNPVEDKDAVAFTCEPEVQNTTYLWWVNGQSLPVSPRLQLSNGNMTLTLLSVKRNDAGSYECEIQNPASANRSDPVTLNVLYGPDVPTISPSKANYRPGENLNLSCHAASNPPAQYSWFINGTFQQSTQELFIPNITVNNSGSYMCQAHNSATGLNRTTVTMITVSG
Kind of experiment: FACS on H647 cells (CEA-/NCA+). The procedure:
as §3, §1

In experiment [7] the target is T2, CD38 and CD138 co-expressed on cells …. Kind of experiment: cell-based or functional assay.
The next experiment addresses T6, CD38 on cells (UniProt P28907 1-300).
T6 construct: whole, on cells; Endogenous CD38 on cell lines used in FACS or microscopy; also called DOM11; T10
Kind of experiment: FACS on RPMI cells (CD38+/138+). The procedure: as §3, §1

The target of experiment [8] is T1, CD138 on cells. Kind of experiment: FACS on HUVEC cells (CD38-/CD138+). The procedure:
as §3, §1

The target of experiment [9] is CD138 and CD56 co-expressed on cells (CD138+/CD56+ double positive cells) (UniProt P18827). Kind of experiment: cell-based or functional assay.

B1: DOM11-3/DOM12-45 anti-CD38/anti-CD138 dual specific ligand (bispecific antibody)
chain: DIQMTQSPSSLSASVGDRVTITCRASQNIDSRLSWYQQKPGKAPKLLIYRTSVLQSGVPSRFSGSGSGTDFTLTISSLQPEDFATYYCQQWDMFPLTFGQGTKVEIKRSSGGGGSGGGGSGGGGSGGGGSGGGGSTDIQMTQSPSSLSASVGDRVTITCRASQDIGDRLRWYQQKPGKAPKLLIYHGSRLESGVPSRFSGSRSGTDFTLTISSLQPEDFATYYCQQQWFRPYTFGQGTKVEIKR
notes: In-line fusion of two dAbs, expressed in E. coli; also called DOM11-3/12-45
In turn, B1 returned a percent of cells right of the FL1-H gate line with CD138 on cells [1] of 3%. The EC50 in experiment [2] was found to be 44.4 nM.

B2: DOM11-30 (other)
chain: DIQITQSPSSLSASVGDRITITCRASQKIENDLAWYQQKPGKAPKLLIYYTSILQSGVPSRFSGSGSGTDFTLTISSLQPEDFATYYCQQRRYVPATFGQGTKVEIKR
notes: Anti-CD38 dAb monomer
Turning to B2, the Kd in [3] is 190 to 230 nM; in [4], 150 nM.

B3: DOM12-17 (other)
chain: B2 chain with I4M, I19V, K28S, E30G, D32N, A34L, I53R, Y93T, V94H, A96H
notes: Anti-CD138 dAb monomer
For B3, the binding result in the experiment with CD138 on cells [5] was “binds”.

B4: DOM13-59 (other)
chain: DIQMTQSPSSLSASVGDRVTITCRASQKIMTHLRWYQQKPGKAPKLLIYGGSHLQSGVPSRFSGSGSGTDFTLTISSLQPEDFATYYCQQTWVSPMTFGQGTKVEIRR
notes: Anti-CEA dAb monomer
For the molecule B4, the Kd in experiment [6] was 400 to 800 nM. Also, in the experiment with NCA on H647 cells, the binding result is on record as “no binding”.

B5: DOM11-30/DOM12-45 anti-CD38/anti-CD138 dual specific ligand (bispecific antibody, part only; not given: linker between dAbs, not shown: small tags and cut ends)
chain, part: DIQITQSPSSLSASVGDRITITCRASQKIENDLAWYQQKPGKAPKLLIYYTSILQSGVPSRFSGSGSGTDFTLTISSLQPEDFATYYCQQRRYVPATFGQGTKVEIKRDIQMTQSPSSLSASVGDRVTITCRASQDIGDRLRWYQQKPGKAPKLLIYHGSRLESGVPSRFSGSRSGTDFTLTISSLQPEDFATYYCQQQWFRPYTFGQGTKVEIKR
B5 yielded a % internalized in experiment [7] of 8%.

B6: DOM13-74 (other)
chain: DIQMTQSPSSLSASVGDRVTITCRASQPIKMMLSWYQQKPGKAPKLLIYNNSTLQSGVPSRFSGSGSGTDFTLTISSLQPEDFATYYCQQYRRWPYTFSQGTKVEIKR
notes: Anti-CEA dAb monomer
The molecule B6 returned a Kd in [6] of 100 to 200 nM. Besides, the binding result in the experiment with NCA on H647 cells is given as “no binding”.

B7: DOM 11-3-23/DOM 12-45-2 (bispecific antibody, V domains shown)
V domain 1: DIQMTQSPSSLSASVGDRVTITCRASQNIDSRLSWYQQKPGKAPKLLIYRASVLQSGVPSRFSGSGSGTDFTLTISSLQPEDFATYYCQQWDMFPLAFGQGTRVEIKR
V domain 2: DIQMTQSPSSLSASVGDRVTITCRASQDIGGRLRWYQQKPGKAPKLLIYHGSRLDSGVPSRFSGSRSGADFTLTISSLQPEDFATYYCQQQWYRPYTFGQGTKVEIKR
As for B7, the EC50 in experiment [2] is 11 nM.

B8: DOM11-7 (other)
chain: DIQMTQSPSSLSASVGDRVTITCRASQYINTLLSWYQQKPGKAPKLLIYAQSRLQSGVPSRFSGSGSGTDFTLTISSLQPEDFATYYCQQFAFRPYTFGQGTKVEIKR
notes: Anti-CD38 dAb monomer
Consider B8, for which the binding result with CD38 on cells is recorded as “binds”; with CD138 on cells [8], “no binding”.

B9: DOM13-25 (other)
chain: B8 chain with Y28S, N30G, T31P, L32W, A50Q, Q51V, F91N, A92L, F93A, R94P
notes: Anti-CEA dAb monomer
Consider B9, for which, in [6], the Kd fell in the range of 100 to 200 nM. For the same molecule, the binding result in the experiment with NCA on H647 cells was “no binding”.

B10: DOM14-23/DOM12-45 anti-CD138/anti-CD56 dual specific ligand (bispecific antibody, part only; not given: linker between dAbs, not shown: small tags and cut ends)
chain, part: DIQMTQSPSSLSASVGDRVTITCRASQDIFPFLNWYQQKPGKAPELLIYRASILHSGVPSRFSGSGSGTDFTLTISSLQPEDFATYYCQQIARSPRTFGQGTKVEIKRDIQMTQSPSSLSASVGDRVTITCRASQDIGDRLRWYQQKPGKAPKLLIYHGSRLESGVPSRFSGSRSGTDFTLTISSLQPEDFATYYCQQQWFRPYTFGQGTKVEIKR
Turning to B10, the % internalized in experiment [9] amounted to 43%.

B11: DOM12-26 (other)
chain: DIQMTQSPSSLSASVGDRVTITCRASQDIFTKLRWYQQKPGKAPRLLIYAGSRLQSGVPSRFSGSGSGTDFTLTISSLQPEDFATYYCQQVKQKPWTFGQGTKVEIKR
notes: Anti-CD138 dAb monomer
For B11, the binding result with CD138 on cells [5] is reported as “binds”.
